The source of these data is patent US20160272683A1 (Novo Nordisk, published 2016).

Numbered stars: 1 amine (or outer) side, 2 acyl side, 3 side chain; on linkers, the order of the positions; unused ones are H or OH. Side chains are listed from the residue outwards. Ends that are not written are not given here. * marks the point of attachment. C20 diacid = O=C(O)CCCCCCCCCCCCCCCCCCC(=O)*; C18 diacid = O=C(O)CCCCCCCCCCCCCCCCC(=O)*; γGlu = O=C(O)[C@H](CCC(=O)[*:2])N[*:1]

First the molecules themselves.
T1: human amylin 3(a) receptor (human calcitonin receptor co-expressed with RAMP-3) (human, UniProt P30988 25-474; O60896 24-148, limits assumed)
T1 sequence (looked up) 1: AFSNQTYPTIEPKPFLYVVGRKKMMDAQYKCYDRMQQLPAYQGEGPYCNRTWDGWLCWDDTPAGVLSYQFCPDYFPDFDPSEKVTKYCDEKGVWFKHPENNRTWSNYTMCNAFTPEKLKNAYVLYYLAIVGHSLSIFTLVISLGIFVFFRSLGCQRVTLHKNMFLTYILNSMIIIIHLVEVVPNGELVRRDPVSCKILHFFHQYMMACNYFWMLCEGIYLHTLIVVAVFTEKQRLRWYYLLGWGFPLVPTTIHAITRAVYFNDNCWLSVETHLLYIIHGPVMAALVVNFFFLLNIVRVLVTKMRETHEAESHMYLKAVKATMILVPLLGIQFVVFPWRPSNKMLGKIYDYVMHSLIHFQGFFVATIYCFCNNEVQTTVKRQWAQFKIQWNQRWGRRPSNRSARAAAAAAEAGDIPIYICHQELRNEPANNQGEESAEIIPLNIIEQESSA
T1 sequence (looked up) 2: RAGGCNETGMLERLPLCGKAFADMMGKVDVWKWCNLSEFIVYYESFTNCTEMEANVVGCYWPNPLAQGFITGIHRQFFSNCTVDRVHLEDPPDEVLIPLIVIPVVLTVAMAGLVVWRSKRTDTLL

T2: human calcitonin receptor (human, UniProt P30988 25-474)
T2 sequence (looked up): T1 sequence (looked up) 1

B1: [N-terminal(C20 diacid-gGlu), des1, 4G, 15Q, 21Q, 23Y, 30S, 31Q, 32T, 33Y]mimylin (peptide)
peptide: {C20 diacid-γGlu}-ASGLSTAALGRLSQELHELQTYPRTETGSQTY-NH2
SMILES: CC(C)C[C@H](NC(=O)CNC(=O)[C@H](CO)NC(=O)[C@H](C)NC(=O)CC[C@H](NC(=O)CCCCCCCCCCCCCCCCCCC(=O)O)C(=O)O)C(=O)N[C@@H](CO)C(=O)N[C@H](C(=O)N[C@@H](C)C(=O)N[C@@H](C)C(=O)N[C@@H](CC(C)C)C(=O)NCC(=O)N[C@@H](CCCNC(=N)N)C(=O)N[C@@H](CC(C)C)C(=O)N[C@@H](CO)C(=O)N[C@@H](CCC(N)=O)C(=O)N[C@@H](CCC(=O)O)C(=O)N[C@@H](CC(C)C)C(=O)N[C@@H](Cc1c[nH]cn1)C(=O)N[C@@H](CCC(=O)O)C(=O)N[C@@H](CC(C)C)C(=O)N[C@@H](CCC(N)=O)C(=O)N[C@H](C(=O)N[C@@H](Cc1ccc(O)cc1)C(=O)N1CCC[C@H]1C(=O)N[C@@H](CCCNC(=N)N)C(=O)N[C@H](C(=O)N[C@@H](CCC(=O)O)C(=O)N[C@H](C(=O)NCC(=O)N[C@@H](CO)C(=O)N[C@@H](CCC(N)=O)C(=O)N[C@H](C(=O)N[C@@H](Cc1ccc(O)cc1)C(N)=O)[C@@H](C)O)[C@@H](C)O)[C@@H](C)O)[C@@H](C)O)[C@@H](C)O
B2: [N-terminal(C18 diacid), 9I]mimylin (peptide)
peptide: {C18 diacid}-EASELSTAILGRLSAELHELATLPRTETGPESP-NH2
SMILES: CC[C@H](C)[C@H](NC(=O)[C@H](C)NC(=O)[C@@H](NC(=O)[C@H](CO)NC(=O)[C@H](CC(C)C)NC(=O)[C@H](CCC(=O)O)NC(=O)[C@H](CO)NC(=O)[C@H](C)NC(=O)[C@H](CCC(=O)O)NC(=O)CCCCCCCCCCCCCCCCC(=O)O)[C@@H](C)O)C(=O)N[C@@H](CC(C)C)C(=O)NCC(=O)N[C@@H](CCCNC(=N)N)C(=O)N[C@@H](CC(C)C)C(=O)N[C@@H](CO)C(=O)N[C@@H](C)C(=O)N[C@@H](CCC(=O)O)C(=O)N[C@@H](CC(C)C)C(=O)N[C@@H](Cc1c[nH]cn1)C(=O)N[C@@H](CCC(=O)O)C(=O)N[C@@H](CC(C)C)C(=O)N[C@@H](C)C(=O)N[C@H](C(=O)N[C@@H](CC(C)C)C(=O)N1CCC[C@H]1C(=O)N[C@@H](CCCNC(=N)N)C(=O)N[C@H](C(=O)N[C@@H](CCC(=O)O)C(=O)N[C@H](C(=O)NCC(=O)N1CCC[C@H]1C(=O)N[C@@H](CCC(=O)O)C(=O)N[C@@H](CO)C(=O)N1CCC[C@H]1C(N)=O)[C@@H](C)O)[C@@H](C)O)[C@@H](C)O
B3: [N-terminal(C20 diacid), des1, 4G, 15Q, 21Q, 23Y, 30S, 31G, 32T, 33Y]mimylin (peptide)
peptide: {C20 diacid}-ASGLSTAALGRLSQELHELQTYPRTETGSGTY-NH2
SMILES: CC(C)C[C@H](NC(=O)CNC(=O)[C@H](CO)NC(=O)[C@H](C)NC(=O)CCCCCCCCCCCCCCCCCCC(=O)O)C(=O)N[C@@H](CO)C(=O)N[C@H](C(=O)N[C@@H](C)C(=O)N[C@@H](C)C(=O)N[C@@H](CC(C)C)C(=O)NCC(=O)N[C@@H](CCCNC(=N)N)C(=O)N[C@@H](CC(C)C)C(=O)N[C@@H](CO)C(=O)N[C@@H](CCC(N)=O)C(=O)N[C@@H](CCC(=O)O)C(=O)N[C@@H](CC(C)C)C(=O)N[C@@H](Cc1c[nH]cn1)C(=O)N[C@@H](CCC(=O)O)C(=O)N[C@@H](CC(C)C)C(=O)N[C@@H](CCC(N)=O)C(=O)N[C@H](C(=O)N[C@@H](Cc1ccc(O)cc1)C(=O)N1CCC[C@H]1C(=O)N[C@@H](CCCNC(=N)N)C(=O)N[C@H](C(=O)N[C@@H](CCC(=O)O)C(=O)N[C@H](C(=O)NCC(=O)N[C@@H](CO)C(=O)NCC(=O)N[C@H](C(=O)N[C@@H](Cc1ccc(O)cc1)C(N)=O)[C@@H](C)O)[C@@H](C)O)[C@@H](C)O)[C@@H](C)O)[C@@H](C)O
B4: [N-terminal(C20 diacid-gGlu), 4G, 15Q, 21Q, 23Y, 30S, 31G, 32T, 33Y]mimylin (peptide)
peptide: {C20 diacid-γGlu}-EASGLSTAALGRLSQELHELQTYPRTETGSGTY-NH2
SMILES: CC(C)C[C@H](NC(=O)CNC(=O)[C@H](CO)NC(=O)[C@H](C)NC(=O)[C@H](CCC(=O)O)NC(=O)CC[C@H](NC(=O)CCCCCCCCCCCCCCCCCCC(=O)O)C(=O)O)C(=O)N[C@@H](CO)C(=O)N[C@H](C(=O)N[C@@H](C)C(=O)N[C@@H](C)C(=O)N[C@@H](CC(C)C)C(=O)NCC(=O)N[C@@H](CCCNC(=N)N)C(=O)N[C@@H](CC(C)C)C(=O)N[C@@H](CO)C(=O)N[C@@H](CCC(N)=O)C(=O)N[C@@H](CCC(=O)O)C(=O)N[C@@H](CC(C)C)C(=O)N[C@@H](Cc1c[nH]cn1)C(=O)N[C@@H](CCC(=O)O)C(=O)N[C@@H](CC(C)C)C(=O)N[C@@H](CCC(N)=O)C(=O)N[C@H](C(=O)N[C@@H](Cc1ccc(O)cc1)C(=O)N1CCC[C@H]1C(=O)N[C@@H](CCCNC(=N)N)C(=O)N[C@H](C(=O)N[C@@H](CCC(=O)O)C(=O)N[C@H](C(=O)NCC(=O)N[C@@H](CO)C(=O)NCC(=O)N[C@H](C(=O)N[C@@H](Cc1ccc(O)cc1)C(N)=O)[C@@H](C)O)[C@@H](C)O)[C@@H](C)O)[C@@H](C)O)[C@@H](C)O
B5: [N-terminal(C18 diacid-gGlu), des1, 6T, 9V, 14T, 21E, 30T, 31G, 32T]mimylin (peptide)
peptide: {C18 diacid-γGlu}-ASELTTAVLGRLTAELHELETLPRTETGTGTP-NH2
SMILES: CC(C)C[C@H](NC(=O)[C@H](CCC(=O)O)NC(=O)[C@H](C)NC(=O)[C@@H](NC(=O)[C@H](CC(C)C)NC(=O)[C@H](CCCNC(=N)N)NC(=O)CNC(=O)[C@H](CC(C)C)NC(=O)[C@@H](NC(=O)[C@H](C)NC(=O)[C@@H](NC(=O)[C@@H](NC(=O)[C@H](CC(C)C)NC(=O)[C@H](CCC(=O)O)NC(=O)[C@H](CO)NC(=O)[C@H](C)NC(=O)CC[C@H](NC(=O)CCCCCCCCCCCCCCCCC(=O)O)C(=O)O)[C@@H](C)O)[C@@H](C)O)C(C)C)[C@@H](C)O)C(=O)N[C@@H](Cc1c[nH]cn1)C(=O)N[C@@H](CCC(=O)O)C(=O)N[C@@H](CC(C)C)C(=O)N[C@@H](CCC(=O)O)C(=O)N[C@H](C(=O)N[C@@H](CC(C)C)C(=O)N1CCC[C@H]1C(=O)N[C@@H](CCCNC(=N)N)C(=O)N[C@H](C(=O)N[C@@H](CCC(=O)O)C(=O)N[C@H](C(=O)NCC(=O)N[C@H](C(=O)NCC(=O)N[C@H](C(=O)N1CCC[C@H]1C(N)=O)[C@@H](C)O)[C@@H](C)O)[C@@H](C)O)[C@@H](C)O)[C@@H](C)O
B6: [N-terminal(C20 diacid-gGlu), des1, 4G, 9V, 23Y, 30S, 31G, 32T, 33Y]mimylin (peptide)
peptide: {C20 diacid-γGlu}-ASGLSTAVLGRLSAELHELATYPRTETGSGTY-NH2
SMILES: CC(C)C[C@H](NC(=O)CNC(=O)[C@H](CO)NC(=O)[C@H](C)NC(=O)CC[C@H](NC(=O)CCCCCCCCCCCCCCCCCCC(=O)O)C(=O)O)C(=O)N[C@@H](CO)C(=O)N[C@H](C(=O)N[C@@H](C)C(=O)N[C@H](C(=O)N[C@@H](CC(C)C)C(=O)NCC(=O)N[C@@H](CCCNC(=N)N)C(=O)N[C@@H](CC(C)C)C(=O)N[C@@H](CO)C(=O)N[C@@H](C)C(=O)N[C@@H](CCC(=O)O)C(=O)N[C@@H](CC(C)C)C(=O)N[C@@H](Cc1c[nH]cn1)C(=O)N[C@@H](CCC(=O)O)C(=O)N[C@@H](CC(C)C)C(=O)N[C@@H](C)C(=O)N[C@H](C(=O)N[C@@H](Cc1ccc(O)cc1)C(=O)N1CCC[C@H]1C(=O)N[C@@H](CCCNC(=N)N)C(=O)N[C@H](C(=O)N[C@@H](CCC(=O)O)C(=O)N[C@H](C(=O)NCC(=O)N[C@@H](CO)C(=O)NCC(=O)N[C@H](C(=O)N[C@@H](Cc1ccc(O)cc1)C(N)=O)[C@@H](C)O)[C@@H](C)O)[C@@H](C)O)[C@@H](C)O)C(C)C)[C@@H](C)O
B7: [des1, 4G, 15Q, 21Q, 23Y, 30S, 31K(C20 diacid-gGlu), 32T, 33Y]mimylin (peptide)
peptide: ASGLSTAALGRLSQELHELQTYPRTETGSK([γGlu-C20 diacid])TY-NH2
modifications: N-terminus assumed
SMILES: CC(C)C[C@H](NC(=O)CNC(=O)[C@H](CO)NC(=O)[C@H](C)N)C(=O)N[C@@H](CO)C(=O)N[C@H](C(=O)N[C@@H](C)C(=O)N[C@@H](C)C(=O)N[C@@H](CC(C)C)C(=O)NCC(=O)N[C@@H](CCCNC(=N)N)C(=O)N[C@@H](CC(C)C)C(=O)N[C@@H](CO)C(=O)N[C@@H](CCC(N)=O)C(=O)N[C@@H](CCC(=O)O)C(=O)N[C@@H](CC(C)C)C(=O)N[C@@H](Cc1c[nH]cn1)C(=O)N[C@@H](CCC(=O)O)C(=O)N[C@@H](CC(C)C)C(=O)N[C@@H](CCC(N)=O)C(=O)N[C@H](C(=O)N[C@@H](Cc1ccc(O)cc1)C(=O)N1CCC[C@H]1C(=O)N[C@@H](CCCNC(=N)N)C(=O)N[C@H](C(=O)N[C@@H](CCC(=O)O)C(=O)N[C@H](C(=O)NCC(=O)N[C@@H](CO)C(=O)N[C@@H](CCCCNC(=O)CC[C@H](NC(=O)CCCCCCCCCCCCCCCCCCC(=O)O)C(=O)O)C(=O)N[C@H](C(=O)N[C@@H](Cc1ccc(O)cc1)C(N)=O)[C@@H](C)O)[C@@H](C)O)[C@@H](C)O)[C@@H](C)O)[C@@H](C)O

The first assay deals with T1, human amylin 3(a) receptor (human …). Description: cell-based or functional assay.
As to B1, the “hAmylin-R funct. EC50 (pM)” value was 37 pM.

Turning to B2, the “hAmylin-R funct. EC50 (pM)” value was 16 pM.

With {C18 diacid-γGlu}-ASELTTAVLGRLEAELHELTTLPRTETGTGTP-NH2 [[N-terminal(C18 diacid-gGlu), des1, 6T, 9V, 14E, 21T, 30T, 31G, 32T]mimylin], the “hAmylin-R funct. EC50 (pM)” value worked out at 386 pM.

With B3, the “hAmylin-R funct. EC50 (pM)” value was found to be 22 pM.

As to B4, the “hAmylin-R funct. EC50 (pM)” value came to 43 pM.

For the molecule B5, the “hAmylin-R funct. EC50 (pM)” value worked out at 235 pM.

In the case of B6, the “hAmylin-R funct. EC50 (pM)” value worked out at 67 pM.

In the case of B7, the “hAmylin-R funct. EC50 (pM)” value came out at 68 pM.

Another assay addresses T2, human calcitonin receptor. Description: cell-based or functional assay.
With B1, the “hCTR funct. EC50 (pM)” value was determined as 25 pM.

In the case of B2, the “hCTR funct. EC50 (pM)” value was found to be 5 pM.

For {C18 diacid-γGlu}-ASELTTAVLGRLEAELHELTTLPRTETGTGTP-NH2 [[N-terminal(C18 diacid-gGlu), des1, 6T, 9V, 14E, 21T, 30T, 31G, 32T]mimylin], the “hCTR funct. EC50 (pM)” value came to 66 pM.

For B3, the “hCTR funct. EC50 (pM)” value is 24 pM.

B4: the “hCTR funct. EC50 (pM)” value came to 23 pM.

Consider B5, for which the “hCTR funct. EC50 (pM)” value came to 45 pM.

On to B6, for which the “hCTR funct. EC50 (pM)” value was determined as 70 pM.

B7: the “hCTR funct. EC50 (pM)” value stood at 36 pM.
